Values quoted from earlier work as cited in paper PMC10062658.

Target: PTH1R (Homo sapiens) (UniProt Q03431)
Sequence of UniProt Q03431 (Q03431 27-593): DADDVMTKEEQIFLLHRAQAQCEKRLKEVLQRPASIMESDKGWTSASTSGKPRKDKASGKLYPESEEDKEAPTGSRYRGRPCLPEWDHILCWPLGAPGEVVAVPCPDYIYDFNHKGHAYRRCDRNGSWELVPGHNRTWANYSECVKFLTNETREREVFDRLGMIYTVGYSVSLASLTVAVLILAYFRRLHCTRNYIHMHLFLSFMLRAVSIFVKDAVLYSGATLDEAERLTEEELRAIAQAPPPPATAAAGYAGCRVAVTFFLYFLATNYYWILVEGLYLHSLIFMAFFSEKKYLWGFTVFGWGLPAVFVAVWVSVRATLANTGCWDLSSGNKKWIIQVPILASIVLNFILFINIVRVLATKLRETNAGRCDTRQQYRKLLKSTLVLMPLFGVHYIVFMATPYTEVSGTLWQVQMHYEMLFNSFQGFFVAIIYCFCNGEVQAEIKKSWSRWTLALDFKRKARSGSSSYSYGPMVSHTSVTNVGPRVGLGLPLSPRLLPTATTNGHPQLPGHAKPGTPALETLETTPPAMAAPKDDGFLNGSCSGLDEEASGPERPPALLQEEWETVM

Kd: 1 nM
Substance: PTH (from UniProt P01270)
